The data set deals with the molecule itself. The data set is described as follows: SEC; Superdex 200 column, final labeled products, compared with MW standards; no aggregate peak observed. Background: SEC sorts molecules by how far they enter the pores of the column.

The stoichiometry N is a count of units in the complex or per binding partner.

B1: sCD73flagACK-biotin (soluble CD73 truncated after S552, C-terminal flag-Ala, ligated to C[K-PEG2-Biotin]) (enzyme, human, UniProt P21589 27-552, looked up)
chain: WELTILHTNDVHSRLEQTSEDSSKCVNASRCMGGVARLFTKVQQIRRAEPNVLLLDAGDQYQGTIWFTVYKGAEVAHFMNALRYDAMALGNHEFDNGVEGLIEPLLKEAKFPILSANIKAKGPLASQISGLYLPYKVLPVGDEVVGIVGYTSKETPFLSNPGTNLVFEDEITALQPEVDKLKTLNVNKIIALGHSGFEMDKLIAQKVRGVDVVVGGHSNTFLYTGNPPSKEVPAGKYPFIVTSDDGRKVPVVQAYAFGKYLGYLKIEFDERGNVISSHGNPILLNSSIPEDPSIKADINKWRIKLDNYSTQELGKTIVYLDGSSQSCRFRECNMGNLICDAMINNNLRHTDEMFWNHVSMCILNGGGIRSPIDERNNGTITWENLAAVLPFGGTFDLVQLKGSTLKKAFEHSVHRYGQSTGEFLQVGGIHVVYDLSRKPGDRVVKLDVLCTKCRVPSYDPLKMDEVYKVILPNFLANGGDGFQMIKDELLRHDSGDQDINVVSTYISKMKVIYPAVEGRIKFSTGS
modifications: C-terminal Ala-Cys-Lys after the flag tag (Ala from the construct, Cys-Lys dipeptide added by expressed protein ligation); PEG2-biotin on the epsilon-amino group of the lysine
notes: soluble CD73 (5'-nucleotidase), truncated after residue S552; Uniprot P21589; Chain order: CD73(to S552)-flag-Ala-Cys-Lys(PEG2-biotin); Secreted protein; also called CD73 labeled with CK-biotin; sCD73flagACK-label; source: HEK293 cells transduced with BacMam, secreted as GyrA-CBD fusion; captured on chitin resin, ligated in 36 mM MESNA, sized on Superdex 200; not shown: FLAG, C-terminal, kept
As to B1, the “stoichiometry N” value was 2.

B2: sCD73-flag-CK-fluorescein (soluble CD73 truncated after S552, C-terminal flag-Ala, ligated to C[K-fluorescein]) (enzyme, human, UniProt P21589 27-552, looked up)
chain: WELTILHTNDVHSRLEQTSEDSSKCVNASRCMGGVARLFTKVQQIRRAEPNVLLLDAGDQYQGTIWFTVYKGAEVAHFMNALRYDAMALGNHEFDNGVEGLIEPLLKEAKFPILSANIKAKGPLASQISGLYLPYKVLPVGDEVVGIVGYTSKETPFLSNPGTNLVFEDEITALQPEVDKLKTLNVNKIIALGHSGFEMDKLIAQKVRGVDVVVGGHSNTFLYTGNPPSKEVPAGKYPFIVTSDDGRKVPVVQAYAFGKYLGYLKIEFDERGNVISSHGNPILLNSSIPEDPSIKADINKWRIKLDNYSTQELGKTIVYLDGSSQSCRFRECNMGNLICDAMINNNLRHTDEMFWNHVSMCILNGGGIRSPIDERNNGTITWENLAAVLPFGGTFDLVQLKGSTLKKAFEHSVHRYGQSTGEFLQVGGIHVVYDLSRKPGDRVVKLDVLCTKCRVPSYDPLKMDEVYKVILPNFLANGGDGFQMIKDELLRHDSGDQDINVVSTYISKMKVIYPAVEGRIKFSTGS
modifications: C-terminal Ala-Cys-Lys after the flag tag (Ala from the construct, Cys-Lys dipeptide added by expressed protein ligation); fluorescein on the epsilon-amino group of the lysine
notes: soluble CD73 (5'-nucleotidase), truncated after residue S552; Uniprot P21589; Chain order: CD73(to S552)-flag-Ala-Cys-Lys(fluorescein); Secreted protein; also called CD73 EPL fluorescein labeled; CD73 labeled with CK-fluorescein; source: HEK293 cells transduced with BacMam, secreted as GyrA-CBD fusion; captured on chitin resin, ligated in 36 mM MESNA, sized on Superdex 200; not shown: FLAG, …
Take B2: the “stoichiometry N” value came to 2.
